Values joined by “and” are separate entries in the source; they are usually repeats but may differ in a detail not shown here. Equal values may be shown once.
Molecular target: the molecule itself
Test: SEC

B1: human diacylglycerol O-acyltransferase-1 (enzyme, UniProt O75907 1-488, looked up)
chain: MGDRGSSRRRRTGSRPSSHGGGGPAAAEEEVRDAAAGPDVGAAGDAPAPAPNKDGDAGVGSGHWELRCHRLQDSLFSSDSGFSNYRGILNWCVVMLILSNARLFLENLIKYGILVDPIQVVSLFLKDPYSWPAPCLVIAANVFAVAAFQVEKRLAVGALTEQAGLLLHVANLATILCFPAAVVLLVESITPVGSLLALMAHTILFLKLFSYRDVNSWCRRARAKAASAGKKASSAAAPHTVSYPDNLTYRDLYYFLFAPTLCYELNFPRSPRIRKRFLLRRILEMLFFTQLQVGLIQQWMVPTIQNSMKPFKDMDYSRIIERLLKLAVPNHLIWLIFFYWLFHSCLNAVAELMQFGDREFYRDWWNSESVTYFWQNWNIPVHKWCIRHFYKPMLRRGSSKWMARTGVFLASAFFHEYLVSVPLRMFRLWAFTGMMAQIPLAWFVGRFFQGNYGNAAVWLSLIIGQPIAVLMYVHDYYVLNYEAPAAEA
For B1, the “stoichiometry N” value was 2 and 4.
